In PMC6614362:

Experiments:
[1] = target: RsbS (Listeria monocytogenes stressosome component) (L. monocytogenes); test: SEC; purified RsbR and RsbS mixed, complex taken from Superose 6 void volume, combined with excess RsbT (4 °C, 4 h), Superose 6 in 20 mM Tris HCl pH 8.5, 150 mM NaCl, 1 mM ADP, 1 mM DTT; fractions analysed by SDS-PAGE
[2] = target: RsbR (Listeria monocytogenes stressosome component) (L. monocytogenes); test: cryo-EM structure; stressosome assembled from purified RsbR, RsbS and RsbT with 1 mM ADP; 20 µg/ml on Quantifoil grids; maps at 4.48 Å (no symmetry) and 3.38 Å (icosahedral symmetry, turrets masked out)
[3] = target: RsbS (Listeria monocytogenes stressosome component) (L. monocytogenes); test: as above
[4] = target: RsbR:RsbS complex (preformed, purified by gel filtration) (L. monocytogenes); test: SEC; purified RsbR and RsbS mixed, complex taken from Superose 6 void volume, combined with excess RsbT (4 °C, 4 h), Superose 6 in 20 mM Tris HCl pH 8.5, 150 mM NaCl, 1 mM ADP, 1 mM DTT; fractions analysed by SDS-PAGE

Question: How did the stoichiometry N (RsbR per RsbS) [1] turn out when “RsbR (Listeria monocytogenes stressosome component) (natural protein)” was run?
Answer: 2

Question: What about the stoichiometry N [2] of the same substance?
Answer: 2

Question: Which stoichiometry N [3] does the source give for “RsbS (Listeria monocytogenes stressosome component) (natural protein)” here?
Answer: 2

Question: How did the stoichiometry N (RsbT per RsbS (RsbR:RsbS:RsbT 2:1:1)) [4] turn out when “RsbT (Listeria monocytogenes stressosome kinase) (enzyme)” was run?
Answer: 1
